Target: VMRFL (VEGFR2-c-MPL chimeric receptor, D1-7 linked to the c-MPL TM) (human)
Assay: cell-based or functional assay

- EC50 of % pSTAT5+ cells (VEGF dose-dependent STAT5 phosphorylation in VMRFL+ T cells): 106 pg/ml
- EC50 of pSTAT5 MFI (VEGF dose-dependent STAT5 phosphorylation in VMRFL+ T cells): 144 pg/mL
Substance: recombinant human VEGF-A165 (from UniProt P15692 27-191) (ligand)

Reference: patent US20250262274A1
